Three molecules from patent US20120121633A1, “HIV CD4 BINDING SITE BASED COVALENT IMMUNOGEN COMPOSITIONS” (priority 2010, published 2012) can be followed below.

For test [1], the system named is subtype C clinical HIV isolate ZA009 (97ZA009). The test is described as follows: HIV neutralization, PBMC/clinical isolate assay, strain ZA009. Type of test: cell-based. The settings on record: MAb clones from KLH-E-416-433 immunized mice. The source says:
FIG. 12. […] A, 416-433 and 301-324 epitope sequences from the autologous subtype B strain of IgA donor 2866 and heterologous subtype C strain ZA009 used for neutralization assays. […] Host cells, PBMCs; virus isolate, R5-dependent subtype C strain ZA009. IC50, 50% neutralization concentration. Dashed lines, 95% confidence limits. […] Pooled IgA (I19-21 donors 2857, 2866 and 2886) was fractionated on agarose-conjugated as in FIG. 8. […] Host cells, PBMCs; virus, strain ZA009.
FIG. 19. […] Abs were fractionated by affinity chromatography on agarose-conjugated E-416-433. Plotted are the neutralization potencies (IC50) expressed per unit mass Ab content (sum of IgM, IgG and IgA measured by ELISA using class-specific Abs as in FIG. 8). IC50 computed from dose-response curves using the CCR5-dependent subtype C strain 97ZA009. […] Noncovalently and covalently bound fractions were recovered, respectively, by pH 2.7 elution and 2-PAM elution.
Neutralization of clinical HIV isolates obtained from the NIH AIDS Reagent Repository is tested using phytohemagglutinin-activated human PBMCs pooled from 4-12 donors.^44 The virus is incubated with the test Ab sample in quadruplicate to ensure reliability. The reaction mixtures are added to PBMCs in 96-well plates. Infection is monitored using p24 enzyme-immunoassay kits. […] The stock HIV strain ZA009 is used to infect PBMC in the presence of the Ab. Infection proceeds overnight and cells are washed and resuspended in RPMI media containing the Ab. After 7 days the cell-free supernatant is harvested and used to infect a new aliquot of stimulated PBMCs (second passage). The virus is passaged 10 times with a gradual (2-fold) increase in Ab concentration with each passage. A virus aliquot is saved at each passage for sequencing.^112 Viral supernatants are titered at each passage using a fresh batch of PBMCs. The gp120 gene will sequenced following RT-PCR as described.^113

The target in test [2] is BSA-E-416-433 (Human immunodeficiency virus type 1 group M subtype B, UniProt P04578, C418S/K429E). The settings on record: inhibited by gp120, Bt-E-416-433 and sCD4, not by Sh416-433 or ovalbumin. How it is done: FIG. 21. […] IgM 2G9 binding to BSA-E-416-433 (70 ng/well) was tested in the absence or presence of increasing concentrations of Bt-E-416-433, sCD4, gp120, control Sh416-433 and control ovalbumin (OVA). Y-axis values are computed as follows 100x[A490 with competitor/A490 without competitor]. Methods as in ref 2.

B1: 4B2-F8: murine IgG MAb from KLH-E-416-433 immunization (antibody, V domains shown)
VH: QVQLQQSGAELVRPGASVKLSCMALGYTFTDYEIHWVKQTPVHGLEWIGGFHPGSGGGAYSQKFKGKATLIADKSSSIAYMEVISLTSEDSAVYYCTRFRYSSFAMVYWGQGTSVTVSS
VL: DIVMSQSPSSLAVSAGEKVTMSCKSSQSLLNSRTRKNYLAWYQQKPGQSPKLLIYWASTRESGVPDRFTGSGSGTDFTLTINSVQAEDLAVYYCKQSYNLWTFGGGTKLEIK
For the molecule B1, in test [1], the “HIV neutralizing activity” value is recorded as “neutralizing activity”.

B2: 9F3-A7: murine IgG MAb from KLH-E-416-433 immunization (antibody, V domains shown)
VH: QVQLQQSGAELVRPGASVKLSCKALGYTFTDYEMHWVKQTPVHGLEWIGGIYPGSGGTAYNQKFKGKATLTADKSSSTAYMELSSLTSEDSAVYYCTKFRFSSFAMDYWGQGTSVTVSS
VL: DIVMSQSPSSLAVSAGEKVTMRCKSSQSLLNSRTRKNYLAWYQQKPGQSPKLLIYWASTRESGVPDRFTGSGSGTDFTLTISSVQAEDLAVYYCKQFYNLWTFGGGTKLEIK
For the molecule B2, the “HIV neutralizing activity” value in test [1] is recorded as “neutralizing activity”.

B3: 2G9: murine IgM MAb from KLH-E-416-433 immunization (antibody, V domains shown)
VH: QVQLKQSGPGLVQPSQSLSITCTVSGFSLTSYGVHWVRQSPGKGLEWLGVIWSGGSTDYNAAFISRLSISKDNSKSQVFFKMNSLQANDTAIYYCARNKDYGSSYDYYAMDYWGQGTSVTVSS
VL: DIQMTQTTSSLSASLGDRVTISCRASQDISNYLNWYQQKPDGTVKLLIYYTSRLHSGVPSRFSGSGSGTDYSLTISNLEQEDIATYFCQQGNTLPTFGGGTKLEIKRA
Regarding B3, the “specificity of binding shown by competitive inhibition” value in test [2] was “Specificity for 421-433 CD4BS sequence”. Also, in test [1], the “HIV neutralizing activity” value was “neutralizing activity”.
